From the domain aggregation screens of Martell et al. (2025)

Test: soluble fraction after stress (log2 fold change); higher = more stays soluble; pooled small domains, quantitative proteomics
Conditions: stress: 50 degC
How it was run: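 Quantitative proteomics served as the high-throughput read-out for pooled custom libraries of small protein domains. Each was stressed at 50°C. Aggregation propensity is expressed as the base-two log fold change in soluble protein after stress. A higher value means a larger share of the protein remains in solution.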

Sequence | soluble fraction (log2)
HMTQDFEPGGQVFSRGEWLTIIRVNKSNGAVSSVTTPNYSFLGYSGTMKVTPDRITDYKAPSAEEAAVAS | -0.281
HMTQGRVTGDGVNVRSQPNTDSAILTRVSTGKVVELISLKDNWYNVVVNGTKGYIRADYVSPYDG | -0.0101
HMTQLPEVPVERGMVLEEVQSGWVGAVTRVEKSGGMHVVALEDRRGKSRSFRLGFGFLLEGQPIRLMPPAP | -1.42
HMTRAETPMAFIRAMVEAYTERGLDPNQALRKAQITPSQLKSTNARVTTLQMEWMSETAMREL | 0.0088
HMTRDAQLAALERLMDDPSPVVRKAVLKGVQAAGTEGLLWLQQLSKNQTLGPYALALLTELR | -0.412
HMTRNGTVTFFNHDKGYGFIKDVLTQESVFVHINSLSEPINEQNKVSFEIEMGPRGSNAINVKLI | -1.97
HMTRTEYMAQLEKYLKKLPHKEFQEAITFFNEYFDEAGPEKETAIMEELGSPKEAASELITNILNRHI | -0.149
HMTRTISKVAKELAINIETVRFYERRGLIEQPPKPELGYRHYPDETVNRIRFIKRAQELGFTLEEIANLLS | -1.75
HMTRVDALDQLAAIRFSSHIFAEDQDLRMVVVDGQRIGEGDIVRDEIRLEQITETGVIFEYQGERFPIDV | -1.42
HMTRYQHLAMLLEKRIAQGLYRNGERLPSVRSLSAEHGVSISTVQQAYYLLEQKQLIIPQSRSGYYVAPH | -4.42
HMTSEVPVGSNVRIRASTLAGERDFEGTMLPPAGEGLTTLKLVNGYNLSYPSKDVLDIEFLGGAGE | 0.057
HMTSHPTHTILDGKVHVFMRDGSPFWWGGFHFKGKYLRTSTKQKNLDSAKTIAQQWYFQKQTEIASGE | -2.67
HMTSKVTVLAVNGRITVSGKEQDETVSVYDTGGRLLYQGESDVINVPRKAMYIVTVSRKSYKVIV | -0.941
HMTSLAGIERFLASGAIAGVGEAMAHRLVQKFGKETLEIIEKKPSRLTEVAGVGKKTAAKIHASYMEK | -0.106
HMTSLGLEGLVNTTAIATSDLRPSGWALAGERKIFVVSEGEFIDNGDKIRILTVDGNRIVVRKETNK | -0.051
HMTSLTSDEEQIINVLRAEESVYINALATKSKIPLQKLLGLLIQLEFKGLIHSLPGSHYKIV | -0.138
HMTSNIIIVPNVVGMTKEQATAALAAAGLNIKLSGVETTDTAAVAVKQKPSANTKVEEGSVVTVEFDLK | 0.0533
HMTSPKSRIVSALLASPSRPEELAMRLGEDILTLMRTLTDFEASGIIQRLPDGRYTPTREYHLGLVDK | 0.0852
HMTSPRRLYALIVEHVGKDGVMHRSDVENVLAKVESEMDVDDLLDQLEINGTIIRRQDGTWQLL | -0.197
HMTSRFITTEEGTLYVDADGRKVSGWQTIDGSRYYFDEHGIRQSGTIEVNGETYVLDEDGVL | 0.0747
HMTSRWEIGYNVAKKYYDEHGNLDVERAVYDNFELKKWLNTQRYKNSAGTLAEKYKIKLDELGMNWER | 0.0505
HMTSSQLYLIEEDMEGERLDAFLAEVIADLSRTAIKDLISNGRVLVDGQARKPSYRVKEGEQVLIHVPEAR | -0.0195
HMTSVFQNSDGTWGHLTKTVNPLIYTIEYGRRTGFSSREEAEESYQRSLTSYQDQLSKLKKERD | 0.314
HMTSVPGTVVTNANLRGGPGTNYPIVGKAPAGTTVNVVESTADRTWYYLDTGSWIAAFLVKLS | 0.152
HMTSVRVPVKKEIWFWAIKESQRDLNEILARFPKMDKWINQEENPTFNQLEKVAKFLRVPFGYMFLDKPPK | -0.931
HMTTETGTVKWFNEGKGFGFIAPDGGGKDLFAHFKEIQGSGFKTLTENQRVQFEVTQGQKGPQASNIRTL | 0.243

Sequence | soluble fraction (log2)
HMTTHEQVAILRRELNGLVGAWHHRTGQAHGVTHSKLRKELGGPPAAVASAAQLSARIEKIRQWAT | -0.635
HMTTIAQMTGPQRAAVILLVLGEDHGRTIWQEFDDDEIRIITRAMAELGTVDADEVERLMLDFVGKLSS | -2.58
HMTTIAQNISNYRTRANMTQQQVADKLSVSHHTVSKWELGINTPSVEDMQKLAQVFGVTITELVVD | -0.239
HMTTIHVDPEKISKIIGPGGKTIKKIVEETGAKIDIEEDGRVYIAAVNSEEAAKAIDMINGI | 0.257
HMTTIPAGRQQYILSLIRREGTVTVSRLAQELEVSELTIRRDLDQMAARNLVERTHGGATERR | -0.138
HMTTKEEAAYQAIRSAIIDGELKPGQSVTIRDLASRFDLGRTPITDAMKHLALDGWLETTTGVGTRV | -0.106
HMTTLAADFNSDGRVDIGDLSILAGNWGKSRTNEVDFNKYGDADYNGRIDIIDLSILATQFGQTDNSN | -0.0889
HMTTLDTVARQLRDRIREQLDPTGEMSDESLLRTIEEAVYRYSSSGHVLTANEKETVIRRIFHSFR | 0.0252
HMTTMNSADLIKELEKAGWTLRGVKGSHHIYTHPARGGHLSVPHPKKDLGAGLARQLRKQAGL | 0.125
HMTTPAAISKIKKLEEAKRLLATTTYSMKEIAVKLKYKSHTHFGMDFKNNTGMTPAEYRKAIKAKREKQMN | -0.0571
HMTTQERVSYSAFINDVETGRVAKVVISGYTIEGTRTNNSSFVTERPYGVDSNLSEVLMQNSVSIEGKA | -0.129
HMTTQVNTVKIQLANGYEMTVLTSKTNVKEILEDNNIILENNEKVTPNIDEEISSNKTIKITDKSN | 0.146
HMTTTSGLIKTIQTGRRKLGMDDETYRALLADVSGGKTSSKDLNAYQLKEVLRRMREAGFRS | 0.218
HMTVDAVALGRRVRHLRKQAGLTLDQLAERTGVSGSHLSLVENARREPRLSLVQRIAEVLGVPVEDL | -1.17
HMTVGEKIQYYRKKIGLSQEELGQKMLLSRQTISLWEMDKTLPTVDNLLRLKEIFSVSIDELLSENEPK | 0.013
HMTVKNFNDLPGFKNENLAELKAMGITTISELAEALNDGGKIKEIIKNLSGVGPKTAEKWKDAIG | ≥ 0.62
HMTVKVPDLRGKTLAEMQRILDDAGLKYEINDSTFSRTAIPGTVREVIPAPGSEVKLGRILFIAINGF | -0.914
HMTVLIDEQSSDGLLKITVTANTAVKSITIADELLEDKEQLEDYLILVLNKAIARANQVNQTELDAVAK | 0.317
HMTVPAGIVLSSIRQDGDVLHIRGTAQSTERLNFFRNSFSASWGSPAQNGKRKADPVTGLVDFTISLK | -0.677
HMTVPMKILILEDEQRNAMRLIRLLNDIDTTFIIEGPLTNIKEAVDFFQSGKTTDLILADIRL | -0.147
HMTVSADQTTADAVIKLIDAIGTVSKNSGSAISAARSGYDALTDAQKKLVTNYNKLTQAEQVFSSLS | 0.129
HMTVSLTDVPFVPEILDRLERPELDVLLAILNGATNTFDLAAKTGRSRDELDEVLDRLTTLGLIER | -0.214
HMTVTLTTLRNGSTGAQVKTLQRLLSAMDYYNGETDGKFGISTAAAVKAFQRAKRLTVDGIVGKNTWTALL | -1.18
HMTVTMADISQAYNEKRYLTTISLSNTYLTFAKPTTELLSIRYRTYFIIGKYAESLTEIAKL | -0.173
HMTVTTDITQYFLQENGLLNGPNARQLRQKIGETLNIGYTNGKQLLKRAQQFGLTRDQILTALKK | -0.481
HMTVVIKVQASQLESWKSSAGTEIKAKLIAVEDEKTYLFVTETGKTIRATAAQLDESSVSRARKLAGL | -1.03

Sequence | soluble fraction (log2)
HMTYGYFELKAKNLDSLKQFLKGIAQVESIEEENNGLKVFLKNELESEELSEKLAEAKIFVSHLAKKK | 0.0782
HMTYKPAADFKPSDTSSLKEGMKVEHPKFGFGTVMKMEEVGTERKARINFADFGEKTLLLSFAKLKIHEN | 0.0858
HMTYNEYPEKEMQDLIDKSISQQEQAASQYGYSLGDYVTARYGFQSESDFREYVQGLAEDYMKEKI | -0.198
HMTYQHQSIIHRRTRGAILTAAKELLAESGISGTNMIEIADRAQVSRASLYNHFRDKHEVFLALVES | -0.677
HMTYSAWIEKAYSELEKKGITEAELSDALDKRGINLEDLKLMGPDEAVKYQSEVEGVVLELSKSKE | -0.0868
HMTYSEEEIERDLYVRGTLYQIGDLVENKIDGTSGEIVRRGPNYVQYSDGENFYKAFLHSIQEV | -0.106
HMTYTMVAYGSQGDAVRQLQSELNRHGYQLDEDGVFGKKTRAAVRDYQKKNSLRLDGIAGDETWGSLLA | 0.324
HMTYTPRAGSLASQVIGFFRHNPDEELLLDDITDKFDATRGNIHTLLAEAVRFKLLARYRNDDGDYVYKPG | -2.97
HMVAADTVQVPDVTGKTVADAKQALISAGLQVGTVTAKDGKETANTILETSPAAGTSVDKGSKVNLVYSTG | -0.185
HMVAAITDLPVKSVNGRQMYYYVVRKGETVYSLTHTLGITHDRLVKANRSVEDGLRAGQILYFPVSEFG | -1.42
HMVAELAEMAENKNITSAQLALAWILKQSENIIPIPGTKRIKYLNENIEAVNVDLSKEDVENIENLLRKYP | -0.0297
HMVAGHLQEKNGQFYAVLSYKDTKGKRRTKWVPTGLMVRGNKKRAEAMLNDIRRKFVPPEQED | 0.0995
HMVAGPDEPLSDREQGVLDLLAEGLSNKAISKQLGISVATVKSHLSNIYGKLQAENRMQAVARARELGLM | ≥ 0.62
HMVAISNTSGLAGVAYWIQSNIPKGIDIRKDNPGIVTIKNWIDEEYRKGRTTTISEEEMFKLVREYMPEL | -1.77
HMVAMGQRVVPLTHLSIDDVRRLLESTYGKDSGIEVTKPGTAAKGVIVTAPRTELDGIVALVKQA | 0.0987
HMVAMYLRVGISNGRRYLSIVQGYRDQVTKKVRHNTVKSLGYLDDLEKHYPDPIAHFKAVVEEMNKKQALE | -0.847
HMVANDQILNQYGISDREAEIIGLLIEGLSNQQIAKQLYISPNTVKTHIKNIYAKVGVNNRLQLFSLLK | -0.173
HMVANLPFNYKVYAKKGKLYVVISYKDSNGKYKKKWIRTGLDEGTKKKEVNTVADQIAAEYYSSMRLE | -1.54
HMVAQQINDFRSERDASTGTLKRPLFDTLRDVISSRAQAYVSATGKPVTVEDLDRIYQAVEAEAKQAL | 0.0781
HMVDDELTARRRVNLRRIADELGGAAAVARKTQKSVQQISSMLNGTKSFGSKIARDIEPKLGLPLQSLDKE | 0.128
HMVDDRPVTGTTLIREWQGRAYEVIVQAGHFEFQGQRYQSLSAIAKVITGTVWNGWAFFGLR | -0.524
HMVDDTGLPTVLISDGRLLERNLHRLHLDHTWLQRRLEENNIPSIQSLFLLTVDKQHQLYFLKK | -1.21
HMVDGTPALTDLKKVSKPGRRHYTGSQEIPRVLNGLGISIVSTSKGIMTGAQARRQKVGGELLAFV | 0.16
HMVDIIMDLLEAVAQARPADAFIKSLHIQYQERGGLSKKQLQGLYGKAAKTAGIPPGKLATLEAIILKRP | -1.38
